From patent US20100261777, “Inhibiton of metallo-beta-lactamase by double-stranded dna” (published 2010)

Key:
[1] = biological target: T1, metallo-beta-lactamase (class B) 5/B/6 (Bacillus cereus) (UniProt P14488); experiment: inhibition; conditions: for IC50: cephalosporin C 4 mM; for IC50 / Ki: MOPS pH 7.0, 30 C; for Ki: noncompetitive
T1 sequence: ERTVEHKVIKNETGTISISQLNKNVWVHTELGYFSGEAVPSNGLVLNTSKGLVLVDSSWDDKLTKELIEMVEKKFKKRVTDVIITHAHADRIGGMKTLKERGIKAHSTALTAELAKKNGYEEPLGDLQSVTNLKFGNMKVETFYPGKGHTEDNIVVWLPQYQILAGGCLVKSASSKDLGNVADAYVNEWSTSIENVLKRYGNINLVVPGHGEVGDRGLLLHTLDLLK

[2] = biological target: T2, metallo-beta-lactamase (class B) 5/B/6 (Bacillus cereus, UniProt P14488 P14488:30-256); experiment: inhibition; single strand control; conditions: tags: strain 5/B/6; desalted enzyme used for SELEX
T2 sequence: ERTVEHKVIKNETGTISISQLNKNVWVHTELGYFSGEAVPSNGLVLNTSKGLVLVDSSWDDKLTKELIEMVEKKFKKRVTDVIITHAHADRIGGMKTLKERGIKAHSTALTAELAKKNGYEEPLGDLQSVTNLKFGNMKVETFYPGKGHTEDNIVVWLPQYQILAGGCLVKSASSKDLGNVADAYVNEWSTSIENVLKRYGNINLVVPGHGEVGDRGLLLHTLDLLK

[3] = biological target: T3, carboxypeptidase A (Bos taurus, UniProt P00730 P00730:111-419); experiment: inhibition; 10% LiCl, 30 C, hippuryl-L-phenylalanine 1 mM; conditions: tags: bovine, zinc-dependent
T3 sequence: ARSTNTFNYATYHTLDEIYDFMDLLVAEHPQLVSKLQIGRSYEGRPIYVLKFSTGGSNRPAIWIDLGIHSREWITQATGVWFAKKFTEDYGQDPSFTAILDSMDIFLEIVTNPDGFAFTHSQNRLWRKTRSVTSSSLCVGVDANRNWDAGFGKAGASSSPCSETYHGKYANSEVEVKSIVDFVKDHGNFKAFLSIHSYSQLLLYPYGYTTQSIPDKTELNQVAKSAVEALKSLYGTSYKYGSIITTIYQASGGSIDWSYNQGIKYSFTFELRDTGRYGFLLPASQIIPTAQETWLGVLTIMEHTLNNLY
Description: Bovine Carboxypeptidase A Assay. The assay used for the bovine carboxypeptidase A is based on the method developed by Folk and Schirmer (1963). The rate of hydrolysis of hippuryl-L-phenylalanine is determined by monitoring the increase in absorbance at 254 nm (25° C., pH=7.5). The enzyme was dissolved in 10% lithium chloride to a concentration of 1-3 units per mL. Hippuryl-L-phenylalanine (1 mM) was dissolved in 0.05 M Tris HCl, pH=7.5 with 0.5 M sodium chloride. In a 1 cm cuvette, 1.0 mL of substrate was added and incubated in the spectraphotometer at 25° C. for 3-4 minutes to reach temperature equilibrium and establish a blank rate. Fifty μL of diluted enzyme was preincubated for 15 minutes at 25° C. with or without the inhibitor and was then added to record the increase in absorbance at 254 nm.
At 25 times the IC₅₀ value (275 nM) for the metallo-β-lactamase no inhibition of the against B. cereus 569/H/9 β-lactamase I was detected (data not shown) Additionally a bovine carboxypeptidase A (Zn²⁺dependent enzyme) assay was performed to test for Zn²⁺ specificity. […] The enzyme was incubated in the buffer (10% LiC1) for 15 minutes at 30° C. The concentration of the substrate (Hippuryl-L-phenylalanine) is 1 mM.

Molecule: ATGATCCGGTGCTGT (double strand) [ds 15-mer]
- IC50 [1]: 21 nM
- Ki ([1]; KI' 76.5 nM): 103 nM

Molecule: ATGATCCGGTGCTGTATGTTCCTACATGA (double strand) [ds 29-mer]
- IC50 ([1]; no added Zn2+): 14 nM
- Ki ([1]; KI' 9.1 nM, no added Zn2+): 11 nM

Molecule: ATGTTCCTACATGA (double strand) [ds 14-mer]
- IC50 [1]: 11 nM
- Ki ([1]; KI' 13 nM): 13 nM

Molecule: CGCGAGCTCCGCGCGNNNNNNNNNNNNNNNNNNNNNNNNNNNNNNCGCGCGCATATGGCGC (double strand) [round 8 SELEX pool (30 nt random insert)]
- activity ([1]; preliminary, pool after round 8, DNA quantitation approximate): 25 % inhibition

Molecule: ATGATCCGGTGCTGT (ssDNA) [ss 15-mer top strand]
- IC50 [2]: 150 nM

B1: ds 14-mer (dsDNA)
DNA 1: ATGTTCCTACATGA
DNA 2: TCATGTAGGAACAT
- IC50 [3]: 100 nM

Molecule: ACAGCACCGGATCAT (ssDNA) [ss 15-mer complementary strand]
- IC50 [2]: 750 nM
